Experimental data from US8507433B1, “Cardioprotective effects of GHRH agonists” (University of Miami, priority 2010, dated 2013).
Values joined by “and” are separate entries in the source; they are usually repeats but may differ in a detail not shown here. Equal entries are not always repeated. Marks after values point to notes of the source that are not given here.

How the values were obtained:
[1] = system: female 6-month-old Fisher-344 rats, MI induced by coronary artery ligation; experiment: Histopathology: MI size, fibrosis, capillary density, myocyte width; format: in vivo, rat; conditions: rats post-MI after 4-week treatment
Experimental: (§1) MI induced by coronary artery ligation was performed in female 6-month-old Fisher-344 rats as described previously (40). Animals were randomly assigned to receive placebo, GHRH-agonist (GHRH-A [JI-38], 50 μg/kg) or rat recombinant GH (rrGH, 0.5 mg/kg) starting 2 hours post-surgery. All treatment was given subcutaneously twice daily for 4 weeks. The Institutional Animal Care and Use committee of University of Miami approved all protocols and experimental procedures.
(§2) At the end of the study, rat hearts were harvested for further analysis. Hearts were weighted and the basal portion, free of fibrotic tissue, was flash-frozen in liquid nitrogen for total RNA isolation and protein analysis. Remaining tissue was fixed with 10% formalin for histology.
Slides were prepared with H&E and Masson's trichrome stain to assess cardiac structure and the presence and extent of fibrosis and myocardial scar, respectively. The size of MI was determined using NIH Image version 1.30v for Windows to quantify the percentage area of fibrosis. An image-processing software (Imaging Processing Toolkit 5.0, Reindeer Graphics, Asheville, N.C.) and Adobe Photoshop CS2 (San Jose, Calif.) were used to assess the slides as previously described with minor modifications (3). The percentage of fibrosis was calculated by using the following formula: % fibrosis=fibrotic area/(fibrotic area+healthy area)
H&E stained sections of hearts from midventricular level were used to measure the myocyte width. At least 35-50 cardiomyocytes were counted and averaged at the level of the nuclei in non-infarcted remote myocardium.

[2] = system: female 6-month-old Fisher-344 rats, MI induced by coronary artery ligation; experiment: Body weight and heart weight after MI, 4-week treatment; format: in vivo, rat; conditions: mean±SEM; for Heart weight (HW) / body weight (BW) after MI: rats post-MI; for Heart weight (HW): after 4-week treatment; for body weight (BW) after MI: week 4, s.c. twice daily 4 weeks, GHRH-A 50 μg/kg or rrGH 0.5 mg/kg; for body weight (BW), baseline: rats, baseline before MI and treatment
Experimental: as §1, §2

GHRH-R mRNA = experiment: Real-time PCR of mRNA for GHRH-R and β-actin in rat heart tissue; format: in vivo; conditions: normalised to β-actin, Pfaffl method
Experimental: (§3) Total RNA from heart tissue was extracted using Trizol (Invitrogen, Carlsbad, Calif.). The quality of RNA isolated was tested using NanoDrop1000 (Thermo Fisher Scientific Inc., Wilmington, Del.). OD 260/280 ratio was in the range of 1.8 to 2.1 for all samples.
The expression of GHRHR was measured using real-time quantitative PCR as described previously by Havt et al (6).
We evaluated the mRNA expression of rat GHRH receptor (GHRH-R) and β-actin. The probes designed to evaluate the expression of GHRH-R and β-actin are 5′-/Cy5/ACCTCCGACTTTCTCAGTTCCTGTATGCCC/BHQ—2/-3′ and 5′-/6-FAM/ATCCTGCGTCTGGACCTGGCTGGC/BHQ—1/-3′, respectively. Gene specific primer sequences were the following: GHRH-R (sense) 5′-[…]-3′ and 5′-TGGTTTCCCTGGGCCTTGG-3′ (antisense) with a product size of 110 bp, β-actin: (sense) 5′-GGGTTACGCGCTCCCTCAT-3′ and 5′-[…]-3′ (antisense) with a product size of 133 bp.
All real-time PCR reactions were performed in the iCycler iQ™ Real-Time PCR Detection System (Bio-Rad, Hercules, Calif.). Thermal cycling conditions comprised an initial denaturation step at 95° C. for 3 min followed by 45 cycles at 95° C. for 30 sec and an annealing temperature at 60° C. for GHRH-R and β-actin for 1 min. As final steps, we included two cycles: one at 95° C. and the other at 60° C., both for 1 min. […]

serum IGF-I = experiment: Rat serum IGF-I (radioimmunoassay) after 4-week treatment; format: in vivo; conditions: rats post-MI, blood 1-2 hours after last injection, vs. placebo
Experimental: as §1
(§4) At the end of the study, blood was drawn 1-2 hours after the last rrGH or GHRH-A injection and the serum was stored at −80° C. until the measurements were done. All the samples were assayed together and each sample was assayed in duplicate. Rat serum GH was measured using a rat GH Enzyme-Linked Immunosorbent Assay (ELISA) Kit (DSL-10-72100, DSL Webster, Tex.), following the manufacturer's recommendations. This test is an enzymatically amplified “one-step” sandwich-type enzyme immunoassay, where standards, controls and unknown samples are incubated in microtitration wells precoated with the anti-rat GH antibody. The standard curve of the assay was established with samples provided by the manufacturer. Rat serum IGF-I was measured using a rat IGF-I Radioimmunoassay Kit (DSL-2900, DSL Webster, Tex.), after extraction with acid ethanol, following the manufacturer's recommendations. […]

serum GH = experiment: Rat serum GH (ELISA) after 4-week treatment; format: in vivo; conditions: rats post-MI, blood 1-2 hours after last injection, vs. placebo
Experimental: as §1, §4

[3] = system: Bcl2 and Bax gene expression; experiment: Real-time PCR of pro-apoptotic and anti-apoptotic genes (Bax, Bcl2) in rat heart; format: in vivo; conditions: rt-qPCR
Experimental: as §3
The monitoring of pro-apoptotic and anti-apoptotic genes was also assessed by real time PCR. First-strand cDNA was synthesized from 1 μg total RNA using the High-Capacity cDNA Reverse-Transcription Kit (Applied Biosystems, Inc., Foster City, Calif., USA), and ribosomal 18S RNA served as the housekeeping gene. We used TaqMan probes labeled with 6-carboxyfluorescein (FAM) for real-time RT-PCR reactions, according to manufacturer's protocol (Applied Biosystems, Inc., Foster City, Calif., USA). Data were analyzed by the threshold cycle (Ct) relative quantification method.

[4] = system: female 6-month-old Fisher-344 rats, MI induced by coronary artery ligation; experiment: Hemodynamic measurements (LV pressure-volume catheterization) post-MI; format: in vivo, rat; set-up: SW (stroke work) / Ees (end-systolic elastance): unit not given here; conditions: rats post-MI after 4-week treatment; for Heart rate: LV catheterization; for LVEDP / LVEDV: preload
Experimental: as §1
Rats were anesthetized by intramuscular injection of a mixture of ketamine (100 mg/kg), xylazine (20 mg/kg) and acepromazine (10 mg/kg). A 2-F micromanometer tipped catheter (SPR-838, Millar Instruments, Houston, Tex.) was inserted into the right carotid artery and advanced retrograde into the left ventricle. Measurements were calibrated by injecting a hypertonic saline (15%) bolus to determine extra-ventricular conductance; relative volume units were converted to actual volume using the cuvette calibration method (2). All analyses were performed using PVAN 3.0 software (Millar Instruments, Houston, Tex.).

[5] = system: female 6-month-old Fisher-344 rats, MI induced by coronary artery ligation; experiment: Echocardiographic measurements post-MI; format: in vivo, rat; conditions: echocardiography
Experimental: as §1
Echocardiographic measurements were obtained at baseline, 2 days, 1, 2 and 4 weeks. Echocardiographic assessments were performed in anesthetized rats (2% isoflurane inhalation) using a Vevo-770 echocardiogram (Visual Sonics Inc., Toronto, Ontario, Canada) equipped with a 17.5-MHz transducer. Cardiac dimensions: LV end diastolic (LVEDD), end systolic (LVESD) diameters and fractional shortening (FS) were recorded from M-mode images using averaged measurements from 3 to 5 consecutive cardiac cycles according to the American Society of Echocardiography (1). Ejection fraction (EF) was calculated from bi-dimensional long-axis parasternal views taken through the infarcted area. All images were analyzed using Vevo 770 3.0.0 software (Visual Sonics Inc., Toronto, Ontario, Canada).

[6] = molecular target: rat GHRH receptor (GHRHR) in membrane fractions from ischemic rat heart (rat) (UniProt Q02644); experiment: radioligand binding: in vitro ligand competition assay with radioiodinated JV-1-42 on ischemic rat heart membrane fractions
[7] = system: Ki67 positive cells and c-kit+ cardiac precursor cells in rat heart; experiment: Immunostaining for Ki67 and c-kit positive cells in heart sections; format: in vivo; conditions: remote zone, relative to placebo and GHRH-A
Experimental: as §1
Paraffin sections were deparaffinized and rehydrated by immersion in xylene and a graded series of ethanols. Antigen retrieval was performed by a heat-induced method with citrate buffer (Dako, Carpinteria, Calif.). After blocking with 10% normal donkey serum, sections were incubated with a primary antibody (table S3), at 37° C. for 1 hour, followed by application of secondary antibody. Omission of the primary antibodies on parallel sections was used as negative control. Nuclei were counterstained with DAPI (Invitrogen, Carlsbad, Calif.). The total numbers of positively-stained cells were quantified per slide to calculate the number of cells per unit volume (mm^3) on each sample. Morphometric analysis was performed by using Adobe Photoshop CS3 (San Jose, Calif.)

Sequence of UniProt Q02644 (Q02644 23-464): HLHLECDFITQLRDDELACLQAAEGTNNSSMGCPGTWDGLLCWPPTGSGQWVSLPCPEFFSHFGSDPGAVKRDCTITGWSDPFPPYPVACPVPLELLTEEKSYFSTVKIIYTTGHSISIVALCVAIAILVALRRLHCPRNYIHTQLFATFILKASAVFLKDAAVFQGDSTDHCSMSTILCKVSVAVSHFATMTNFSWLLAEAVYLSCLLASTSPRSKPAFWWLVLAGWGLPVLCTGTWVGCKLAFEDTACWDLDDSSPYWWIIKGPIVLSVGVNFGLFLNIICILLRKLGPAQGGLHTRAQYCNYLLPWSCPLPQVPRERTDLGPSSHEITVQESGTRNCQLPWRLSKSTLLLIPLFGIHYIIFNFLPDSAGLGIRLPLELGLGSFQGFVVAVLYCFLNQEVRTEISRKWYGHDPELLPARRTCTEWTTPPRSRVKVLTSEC

Molecule	capillary density [1]	Heart weight (HW) [2]	body weight (BW) after MI [2]	body weight (BW), baseline [2]	Ratio (GHRH-R gene expression level in treatment group compared to placebo group) (GHRH-R mRNA)	serum IGF-I (serum IGF-I)	serum GH (serum GH)	Heart rate [4]	LVESP ([4]; afterload)	Ees (end-systolic elastance) ([4]; contractility)	LVEDP [4]	LVEDV [4]	EF ([5]; 4 weeks (W4) post-MI)	FS ([5]; 4 weeks (W4) post-MI)	LVEDD ([5]; 4 weeks (W4) post-MI)	EF ([5]; baseline (BSL))	FS ([5]; baseline (BSL))	LVEDD ([5]; baseline (BSL))	LVESD ([5]; baseline (BSL))	further results
[Dat^1, Gln^8, Orn^12,21, Abu^15, Nle^27, Asp^28, Agm^29]hGH-RH(1-29)NH2 [GHRH-A]	0.006±0.001 /mm^2	695 ± 26 mg	225 ± 3 g	231 ± 5 g	1.91	did not increase	did not increase	270 ± 17 bpm	83 ± 1.1 mmHg	0.19 ± 0.02	8 ± 0.5 mmHg	421 ± 26 µL	47±4% and 47.2 ± 4.0 ¶ %	28.7±3.3%	7.7 ± 0.2 mm	85.7 ± 1.6%	53.1 ± 1.0%	6.3 ± 0.2 mm	2.9 ± 0.1 mm	expression of anti-apoptotic gene (Bcl2) [3]: upregulated; expression of pro-apoptotic gene (Bax) [3]: trended to be downregulated; ratio between Bax and Bcl2 expression ([3]; in comparison to placebo or rrGH): significantly reduced; Ea (arterial elastance) ([4]; afterload): 0.5 ± 0.004 mmHg/μl
GHRH antagonist JV-1-42 (radioiodinated derivative) (peptide)																				Bmax (fmol/mg protein) [6]: 51.3; Kd [6]: 0.86 nM
rrGH: Rat recombinant GH supplied by National Hormone and Pituitary Program (NHPP) (protein, UniProt P01244 27-216, looked up) Somatotropin: FPAMPLSSLFANAVLRAQHLHQLAADTYKEFERAYIPEGQRYSIQNAQAAFCFSETIPAPTGKEEAQQRTDMELLRFSLLLIQSWLGPVQFLSRIFTNSLMFGTSDRVYEKLKDLEEGIQALMQELEDGSPRIGQILKQTYDKFDANMRSDDALLKNYGLLSCFKKDLHKAETYLRVMKCRRFAESSCAF	0.02±0.002 /mm^2	850 ± 38 mg	256 ± 3 g	217 ± 4 g	2.10 *	1052 ± 91 ng/mL	679 ± 196 ng/mL	247 ± 6.8 bpm	91 ± 2.3 mmHg	0.33 ± 0.12	10 ± 1.8 mmHg	351 ± 38 µL	44±2% and 44.3 ± 2.3%	20.3±1.3%	8.6 ± 0.1 mm	89.2 ± 0.4%	58.2 ± 0.7%	5.9 ± 0.1 mm	2.3 ± 0.1 mm	MI size (infarct size) ([1]; Masson's trichrome): 45±2%; percentage of ventricular fibrosis [1]: 27±1%; expression of Ki67 positive cells [7]: higher; PRSW ([4]; contractility): 48 ± 5.0 mmHg; dP/dtmax ([4]; contractility): 6243 ± 313 mmHg/s; dP/dtmax_EDV ([4]; contractility): 17.5 ± 4.3 mmHg/s/l; dP/dtmin ([4]; lusitropy): 4028 ± 334 mmHg/s; CO (cardiac output) ([4]; pressure-volume derived): 22.5 ± 3.4 mL/min; EF ([4]; pressure-volume derived): 26.2 ± 1.7%; SV (stroke volume) ([4]; pressure-volume derived): 98 ± 13 µL; SW (stroke work) ([4]; pressure-volume derived): 6920 ± 790; Ea/Ees ([4]; ratio between arterial elastance and end-systolic elastance): 4.4 ± 0.6; TAU (G) ([4]; relaxation time constant, Glantz method): 19.9 ± 0.4 ms; LVESD ([5]; 4 weeks (W4) post-MI): 6.8 ± 0.2 mm
